According to article PMC6003922, “Functional switching of ascorbate peroxidase 2 of rice (OsAPX2) between peroxidase and molecular chaperone” (Scientific Reports, 2018):

Target: the molecule itself
Assay: SEC; Superdex 200 10/300 GL, FPLC, 50 mM Tris-HCl pH 7.5, 100 mM NaCl, 0.5 mL/min, 4 °C; four fractions: F1 HMW complexes (>2,000 kDa), F2 and F3 LMW forms (between 158 and 440 kDa), F4 major dimeric form

B1: recombinant Oryza sativa ascorbate peroxidase 2 (OsAPX2) protein (enzyme, UniProt Q9FE01 1-251, looked up)
chain: MGSKSYPTVSDEYLAAVGKAKRKLRGLIAEKNCAPLMLRLAWHSAGTFDVSSRTGGPFGTMKNPGEQSHAANAGLDIAVRLLDPIKDQLPILSYADFYQLAGVVAVEVTGGPEVPFHPGRQDKPEPPPEGRLPDATQGSDHLRQVFSAQMGLSDKDIVALSGGHTLGRCHKERSGFEGAWTSNPLIFDNSYFTELVSGEKEGLLQLPSDKALMADPAFRPLVEKYAADEDAFFADYAEAHLKLSELGFAEE
notes: Ascorbate peroxidase 2 (OsAPX2), cytosolic, Oryza sativa; the OsAPX2 gene cloned into pET28a; monomer of approximately 27 kDa on reducing SDS-PAGE; Haem-containing peroxidase; also called His-tagged OsAPX2; purified OsAPX2; source: E. coli BL21 (DE3), pET28a, purified (nickel-nitrilotriacetate agarose; SEC)
**Q.** For B1, which “stoichiometry N” value is on record?
**A.** 2
